Test results published in US10941182 (Amgen, dated 2021).
Starred links: 1 amine or outer side, 2 acyl side, 3 side chain; linkers in the order of their positions; H or OH if unused. Non-standard residues stand in square brackets, D forms with d. *: point of attachment. AC4Abu = α-carboxy-4-aminobutyric acid, O=C(C(CCN[*:1])C(=O)[*:3])[*:2]; dBip = N[C@H](Cc1ccc(-c2ccccc2)cc1)C(=O)O; Oic = O=C(O)[C@@H]1C[C@@H]2CCCC[C@@H]2N1; Phe(4-Cl) = N[C@@H](Cc1ccc(Cl)cc1)C(=O)O; dPhe(4-Cl) = N[C@H](Cc1ccc(Cl)cc1)C(=O)O; Phe(4-I) = N[C@@H](Cc1ccc(I)cc1)C(=O)O; γGlu = O=C(O)[C@H](CCC(=O)[*:2])N[*:1]; NMeR = CN[C@@H](CCCNC(=N)N)C(=O)O; Tridecanoyl = CCCCCCCCCCCCC(=O)*; hArg = N=C(N)NCCCC[C@H](N)C(=O)O; Cha = N[C@@H](CC1CCCCC1)C(=O)O; NMeL = CN[C@@H](CC(C)C)C(=O)O; αMeL = CC(C)C[C@](C)(N)C(=O)O; β3hN = NC(=O)C[C@H](N)CC(=O)O; β3hL = CC(C)C[C@H](N)CC(=O)O; αMeP = C[C@@]1(C(=O)O)CCCN1; Nle = CCCC[C@H](N)C(=O)O; Deg = CCC(N)(CC)C(=O)O; AEEA = NCCOCCOCC(=O)O; BLeu = β-leucine

What was measured:
rat APJ receptor = target: T1, rat APJ receptor (rat, UniProt Q9JHG3 1-377); assay: cell-based or functional assay
T1 sequence (looked up): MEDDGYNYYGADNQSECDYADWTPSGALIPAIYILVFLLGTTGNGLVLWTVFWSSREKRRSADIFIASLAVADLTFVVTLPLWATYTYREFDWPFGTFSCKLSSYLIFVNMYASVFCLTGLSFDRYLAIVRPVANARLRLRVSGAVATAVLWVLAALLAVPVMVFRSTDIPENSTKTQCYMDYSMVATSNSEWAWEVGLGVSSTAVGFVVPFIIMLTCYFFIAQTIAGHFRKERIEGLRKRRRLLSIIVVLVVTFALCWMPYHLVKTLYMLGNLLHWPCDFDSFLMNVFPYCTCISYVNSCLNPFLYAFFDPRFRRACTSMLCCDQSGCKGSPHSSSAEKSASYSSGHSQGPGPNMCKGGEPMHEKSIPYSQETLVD

human APJ receptor = target: T2, human APJ receptor (human, UniProt P35414 1-380); assay: cell-based or functional assay
T2 sequence (looked up): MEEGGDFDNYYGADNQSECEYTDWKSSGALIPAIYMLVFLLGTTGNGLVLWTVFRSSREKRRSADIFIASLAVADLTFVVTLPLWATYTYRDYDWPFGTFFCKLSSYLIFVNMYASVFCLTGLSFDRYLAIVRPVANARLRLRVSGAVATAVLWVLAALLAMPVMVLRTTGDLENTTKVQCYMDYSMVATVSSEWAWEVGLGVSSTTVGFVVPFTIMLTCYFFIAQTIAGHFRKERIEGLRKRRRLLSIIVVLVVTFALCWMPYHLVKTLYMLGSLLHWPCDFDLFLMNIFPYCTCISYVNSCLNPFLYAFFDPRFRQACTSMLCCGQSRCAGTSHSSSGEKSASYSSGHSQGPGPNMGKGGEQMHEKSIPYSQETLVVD

Binder: Tridecanoyl-[γGlu][AEEA][AEEA][BLeu]RP[hArg][BLeu]SHKG[Oic][Nle]P[Phe(4-Cl)]-OH [SEQ ID NO: 395]
- EC50 Rat APJ Receptor (rat APJ receptor): 1.02 nM
- EC50 Human APJ Receptor (human APJ receptor): 0.741 nM

B1: SEQ ID NO: 375 (peptide)
peptide: Tridecanoyl-[γGlu][AEEA][AEEA][αMeL]RP[NMeR][αMeL]SHKG[Oic][Nle]P[Phe(4-Cl)]-OH
SMILES: CCCCCCCCCCCCC(=O)N[C@@H](CCC(=O)NCCOCCOCC(=O)NCCOCCOCC(=O)N[C@@](C)(CC(C)C)C(=O)N[C@@H](CCCNC(=N)N)C(=O)N1CCC[C@H]1C(=O)N(C)[C@@H](CCCNC(=N)N)C(=O)N[C@@](C)(CC(C)C)C(=O)N[C@@H](CO)C(=O)N[C@@H](Cc1c[nH]cn1)C(=O)N[C@@H](CCCCN)C(=O)NCC(=O)N1[C@H](C(=O)N[C@@H](CCCC)C(=O)N2CCC[C@H]2C(=O)N[C@@H](Cc2ccc(Cl)cc2)C(=O)O)C[C@@H]2CCCC[C@@H]21)C(=O)O
- EC50 Rat APJ Receptor (rat APJ receptor): 0.288 nM
- EC50 Human APJ Receptor (human APJ receptor): 0.155 nM

B2: SEQ ID NO: 321 (peptide)
peptide: Tridecanoyl-[γGlu][AEEA][AEEA][hArg][Nle]Q[hArg]P[dR][NMeL]AHKG[Oic][Phe(4-I)]P[dBip]-OH
SMILES: CCCCCCCCCCCCC(=O)N[C@@H](CCC(=O)NCCOCCOCC(=O)NCCOCCOCC(=O)N[C@@H](CCCCNC(=N)N)C(=O)N[C@@H](CCCC)C(=O)N[C@@H](CCC(N)=O)C(=O)N[C@@H](CCCCNC(=N)N)C(=O)N1CCC[C@H]1C(=O)N[C@H](CCCNC(=N)N)C(=O)N(C)[C@@H](CC(C)C)C(=O)N[C@@H](C)C(=O)N[C@@H](Cc1c[nH]cn1)C(=O)N[C@@H](CCCCN)C(=O)NCC(=O)N1[C@H](C(=O)N[C@@H](Cc2ccc(I)cc2)C(=O)N2CCC[C@H]2C(=O)N[C@H](Cc2ccc(-c3ccccc3)cc2)C(=O)O)C[C@@H]2CCCC[C@@H]21)C(=O)O
- EC50 Rat APJ Receptor (rat APJ receptor): 29.1 nM
- EC50 Human APJ Receptor (human APJ receptor): 17.9 nM

Binder: Tridecanoyl-[γGlu][AEEA][AEEA][BLeu][hArg]P[NMeR][Cha]SHKG[Oic][Nle]P[dPhe(4-Cl)]-OH [SEQ ID NO: 298]
- EC50 Rat APJ Receptor (rat APJ receptor): 24.9 nM
- EC50 Human APJ Receptor (human APJ receptor): 32.8 nM

B3: SEQ ID NO: 420 (peptide)
peptide: Tridecanoyl-[γGlu][AEEA][AEEA][β3hN]RP[NMeR]LSHKGP[Nle]P[Phe(4-Cl)]-OH
SMILES: CCCCCCCCCCCCC(=O)N[C@@H](CCC(=O)NCCOCCOCC(=O)NCCOCCOCC(=O)N[C@@H](CC(N)=O)CC(=O)N[C@@H](CCCNC(=N)N)C(=O)N1CCC[C@H]1C(=O)N(C)[C@@H](CCCNC(=N)N)C(=O)N[C@@H](CC(C)C)C(=O)N[C@@H](CO)C(=O)N[C@@H](Cc1c[nH]cn1)C(=O)N[C@@H](CCCCN)C(=O)NCC(=O)N1CCC[C@H]1C(=O)N[C@@H](CCCC)C(=O)N1CCC[C@H]1C(=O)N[C@@H](Cc1ccc(Cl)cc1)C(=O)O)C(=O)O
- EC50 Rat APJ Receptor (rat APJ receptor): 0.0838 nM
- EC50 Human APJ Receptor (human APJ receptor): 0.0525 nM

Binder: Tridecanoyl-[γGlu][AEEA][AEEA][BLeu]RP[NMeR][αMeL]SHKG[Oic][Nle][αMeP][Phe(4-Cl)]-OH [SEQ ID NO: 388]
- EC50 Rat APJ Receptor (rat APJ receptor): 0.727 nM
- EC50 Human APJ Receptor (human APJ receptor): 0.706 nM

Binder: XXXLRPRLSHKGPXPF ({TDA}[AC4Abu][Aeea][Aeea][BhLeu]RP[NMeArg]LSHKGP[Nle]P[4-Cl-F]{COOH}) [SEQ ID NO: 421]
- EC50 Rat APJ Receptor (rat APJ receptor): 0.285 nM
- EC50 Human APJ Receptor (human APJ receptor): 0.0934 nM

Binder: Tridecanoyl-[γGlu][AEEA][AEEA][BLeu]RP[NMeR][αMeL]SHKG[Oic][Nle]P[Phe(4-Cl)]-OH [SEQ ID NO: 374]
- EC50 Rat APJ Receptor (rat APJ receptor): 0.503 nM
- EC50 Human APJ Receptor (human APJ receptor): 0.305 nM

Binder: Tridecanoyl-[γGlu][AEEA][AEEA][BLeu]RP[NMeR][BLeu]SHKG[Oic][Nle]P[Phe(4-Cl)]-OH [SEQ ID NO: 394]
- EC50 Rat APJ Receptor (rat APJ receptor): 1.5 nM
- EC50 Human APJ Receptor (human APJ receptor): 0.297 nM

Binder: Tridecanoyl-[AC4Abu][AEEA][AEEA][BLeu]R[αMeP][hArg][αMeL]SHKG[Oic][Nle][αMeP][Phe(4-Cl)]-OH [SEQ ID NO: 552]
- EC50 Rat APJ Receptor (rat APJ receptor): 4.88 nM
- EC50 Human APJ Receptor (human APJ receptor): 1.96 nM

B4: SEQ ID NO: 299 (peptide)
peptide: Tridecanoyl-[γGlu][AEEA][AEEA][β3hN][hArg]P[NMeR][Cha]SHKG[Oic][Nle]P[dPhe(4-Cl)]-OH
SMILES: CCCCCCCCCCCCC(=O)N[C@@H](CCC(=O)NCCOCCOCC(=O)NCCOCCOCC(=O)N[C@@H](CC(N)=O)CC(=O)N[C@@H](CCCCNC(=N)N)C(=O)N1CCC[C@H]1C(=O)N(C)[C@@H](CCCNC(=N)N)C(=O)N[C@@H](CC1CCCCC1)C(=O)N[C@@H](CO)C(=O)N[C@@H](Cc1c[nH]cn1)C(=O)N[C@@H](CCCCN)C(=O)NCC(=O)N1[C@H](C(=O)N[C@@H](CCCC)C(=O)N2CCC[C@H]2C(=O)N[C@H](Cc2ccc(Cl)cc2)C(=O)O)C[C@@H]2CCCC[C@@H]21)C(=O)O
- EC50 Rat APJ Receptor (rat APJ receptor): 14.6 nM
- EC50 Human APJ Receptor (human APJ receptor): 24.4 nM

B5: SEQ ID NO: 398 (peptide)
peptide: XXXXXXXQRPRLSHKGPXPF
modifications: {TDA}[AC4Abu][Aeea][Aeea][Aeea][Aeea][Aeea][Aeea]QRP[NMeArg]LSHKGP[Nle]P[4-Cl-F]{COOH}
- EC50 Rat APJ Receptor (rat APJ receptor): 0.116 nM
- EC50 Human APJ Receptor (human APJ receptor): 0.0573 nM

Binder: Tridecanoyl-[γGlu][AEEA][AEEA][BLeu]RP[NMeR][Cha]SHKG[Oic][Nle]P[Phe(4-Cl)]-OH [SEQ ID NO: 393]
- EC50 Rat APJ Receptor (rat APJ receptor): 2.67 nM
- EC50 Human APJ Receptor (human APJ receptor): 0.769 nM

B6: SEQ ID NO: 558 (peptide)
peptide: Tridecanoyl-[AC4Abu][AEEA][AEEA][Deg][hArg]P[dR][Cha]SHKG[Oic][Nle]P[Phe(4-Cl)]-OH
SMILES: CCCCCCCCCCCCC(=O)NCCC(C(=O)O)C(=O)NCCOCCOCC(=O)NCCOCCOCC(=O)NC(CC)(CC)C(=O)N[C@@H](CCCCNC(=N)N)C(=O)N1CCC[C@H]1C(=O)N[C@H](CCCNC(=N)N)C(=O)N[C@@H](CC1CCCCC1)C(=O)N[C@@H](CO)C(=O)N[C@@H](Cc1c[nH]cn1)C(=O)N[C@@H](CCCCN)C(=O)NCC(=O)N1[C@H](C(=O)N[C@@H](CCCC)C(=O)N2CCC[C@H]2C(=O)N[C@@H](Cc2ccc(Cl)cc2)C(=O)O)C[C@@H]2CCCC[C@@H]21
- EC50 Rat APJ Receptor (rat APJ receptor): 12.5 nM
- EC50 Human APJ Receptor (human APJ receptor): 3.4 nM

B7: SEQ ID NO: 300 (peptide)
peptide: Tridecanoyl-[γGlu][AEEA][AEEA][β3hL][hArg]P[NMeR][Cha]SHKG[Oic][Nle]P[dPhe(4-Cl)]-OH
SMILES: CCCCCCCCCCCCC(=O)N[C@@H](CCC(=O)NCCOCCOCC(=O)NCCOCCOCC(=O)N[C@H](CC(=O)N[C@@H](CCCCNC(=N)N)C(=O)N1CCC[C@H]1C(=O)N(C)[C@@H](CCCNC(=N)N)C(=O)N[C@@H](CC1CCCCC1)C(=O)N[C@@H](CO)C(=O)N[C@@H](Cc1c[nH]cn1)C(=O)N[C@@H](CCCCN)C(=O)NCC(=O)N1[C@H](C(=O)N[C@@H](CCCC)C(=O)N2CCC[C@H]2C(=O)N[C@H](Cc2ccc(Cl)cc2)C(=O)O)C[C@@H]2CCCC[C@@H]21)CC(C)C)C(=O)O
- EC50 Rat APJ Receptor (rat APJ receptor): 36.4 nM
- EC50 Human APJ Receptor (human APJ receptor): 41.5 nM

B8: SEQ ID NO: 443 (peptide)
peptide: Tridecanoyl-[γGlu][AEEA][AEEA][Deg]RP[NMeR][Cha]SHKG[Oic][Nle]P[Phe(4-Cl)]-OH
SMILES: CCCCCCCCCCCCC(=O)N[C@@H](CCC(=O)NCCOCCOCC(=O)NCCOCCOCC(=O)NC(CC)(CC)C(=O)N[C@@H](CCCNC(=N)N)C(=O)N1CCC[C@H]1C(=O)N(C)[C@@H](CCCNC(=N)N)C(=O)N[C@@H](CC1CCCCC1)C(=O)N[C@@H](CO)C(=O)N[C@@H](Cc1c[nH]cn1)C(=O)N[C@@H](CCCCN)C(=O)NCC(=O)N1[C@H](C(=O)N[C@@H](CCCC)C(=O)N2CCC[C@H]2C(=O)N[C@@H](Cc2ccc(Cl)cc2)C(=O)O)C[C@@H]2CCCC[C@@H]21)C(=O)O
- EC50 Rat APJ Receptor (rat APJ receptor): 1.67 nM
- EC50 Human APJ Receptor (human APJ receptor): 2.31 nM
